Target: enterovirus D68 clade B2 virus (enterovirus D68)
Assay: cell-based or functional assay

B1: AAA_G12 anti-EV-D68 VHH (recombinant VHH G12) (VHH)
VHH: QVQLVESGGGLVQPGGSLRLSCLASGITFTVYRMAWYRQAPGRQRDLVAEVAPGGGTVAANSVKGRFTISRDSAKNTVDLQMNDLKPDDTAVYYCYARNLFTSGEYWGQGTQVTVSS
50% inhibitory concentrations (IC50), neutralization by real time cell analysis (RTCA) assay: ~1 nM
